According to patent publication US20210246200A1 (UNIVERSIT T Z RICH, published 2021):

Tests used:
Proleukin® (aldesleukin) [1] = biological target: T1, Proleukin® (aldesleukin) (human, UniProt P60568 21-153, limits assumed); assay: ELISA, coated Proleukin, serially diluted supernatant
T1 construct: Variant of human wt IL-2 with C145S (C125S on mature IL-2); also called IL-2 (Proleukin®); human IL-2 (Proleukin)

Proleukin® (aldesleukin) [2] = biological target: T1, Proleukin® (aldesleukin); assay: ELISA, coated Proleukin, HEK293F supernatant 1:2
Experimental: Subsequently, hIL-2 binding efficiency of the antibodies present in the supernatants was determined using ELISA. In brief, ELISA plates (Maxisorp 96-well black microtiter plate) were coated overnight at 4° C. with 100p/well of Proleukin® (5 μg/ml PBS). ELISA plates were washed once with TBST (1×TBS/0.05% Tween 20) using a plate-washer (BioTek). […] After removal of the blocking buffer, plates were washed once with TBST using the plate washer. Supernatants were diluted 1:2 in blocking buffer and 50 μl transferred to the designated well of the ELISA plate. Each sample was present on three ELISA plates. The three plates were incubated at RT under gentle agitation. […] The other two plates were washed either every hour three times with TBST for 4 hours or washed every hour three times for 12 hours before adding the detection antibody. […] Luminescence signal was measured after 5 minutes incubation in the dark. […] All ELISA values are mean values based on two measurements.

T1 sequence (P60568 other isoform, or with tags, fused parts or gaps limits assumed): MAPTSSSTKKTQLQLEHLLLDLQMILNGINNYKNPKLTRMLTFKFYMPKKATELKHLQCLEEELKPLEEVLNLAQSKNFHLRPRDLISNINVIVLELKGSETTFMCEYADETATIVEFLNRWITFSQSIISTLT

| Binder | EC50 (Proleukin® (aldesleukin) [1]) | ELISA value (Normal ELISA) (Proleukin® (aldesleukin) [2]) | ELISA value (wash 3x every hour for 4 HRS) (Proleukin® (aldesleukin) [2]) | ELISA value (wash 3x every hour for 12 HRS) (Proleukin® (aldesleukin) [2]) |
| --- | --- | --- | --- | --- |
| Antibody No: 2 (antibody, human IgG1, kappa, N297A, V domains shown, VH WT; VK M33L; HEK293F supernatant) VH: EVQLVQSGAEVKKPGESLKISCKGSGYAFTNYLIEWVRQMPGKGLEWMGVINPGSGGTNYNEKFKGQVTISADKSISTAYLQWSSLKASDTAMYYCARWRGEGYYAYFDVWGQGTTVTVSS VL: AIRLTQSPSSFSASTGDRVTITCKASQSVDYQGDSYLNWYQQKPGKAPKLLIYAASNLESGVPSRFSGSGSGTDFTLTISSLQSEDFATYYCQQSNEDPYTFGGGTKVEIKR | 790 pM | 1360 luminescence signal | 1230 luminescence signal | 518 luminescence signal |
| Antibody No: 21 (antibody, human IgG1, kappa, N297A, V domains shown, VK WT; HEK293F supernatant) VH: EVQLVQSGAEVKKPGESLKISCKGSGYAFSNYLIEWVRQMPGKGLEWMGVINPGSGGTNYNEKFKGQVTISADKSISTAYLQWSSLKASDTAMYYCARWRGEGYYAYYDVWGQGTTVTVSS VL: AIRLTQSPSSFSASTGDRVTITCKASQSVDYQGDSYMNWYQQKPGKAPKLLIYAASNLESGVPSRFSGSGSGTDFTLTISSLQSEDFATYYCQQSNEDPYTFGGGTKVEIKR | 650 pM | 2200 luminescence signal | 1840 luminescence signal | 892 luminescence signal |
| Antibody No: 9 (antibody, human IgG1, kappa, N297A, V domains shown, VK A50T; HEK293F supernatant) VH: EVQLVQSGAEVKKPGESLKISCKGSGYAFTNYLIEWVRQMPGKGLEWMGVINPGSGGTNYNEKFKGQVTISADKSISTAYLQWSSLKASDTAMYYCARWRGEGYYAYYDVWGQGTTVTVSS VL: AIRLTQSPSSFSASTGDRVTITCKASQSVDYQGDSYMNWYQQKPGKAPKLLIYTASNLESGVPSRFSGSGSGTDFTLTISSLQSEDFATYYCQQSNEDPYTFGGGTKVEIKR | 500 pM | 1940 luminescence signal | 1430 luminescence signal | 686 luminescence signal |
| Antibody No: 17 (antibody, human IgG1, kappa, N297A, V domains shown, VK M33L; HEK293F supernatant) VH: EVQLVQSGAEVKKPGESLKISCKGSGYAFTNYLIEWVRQMPGKGLEWMGVINPGSGGTYYNEKFKGQVTISADKSISTAYLQWSSLKASDTAMYYCARWRGEGYYAYYDVWGQGTTVTVSS VL: AIRLTQSPSSFSASTGDRVTITCKASQSVDYQGDSYLNWYQQKPGKAPKLLIYAASNLESGVPSRFSGSGSGTDFTLTISSLQSEDFATYYCQQSNEDPYTFGGGTKVEIKR | 1390 pM | 3050 luminescence signal | 2820 luminescence signal | 1140 luminescence signal |
| Antibody No: 3 (antibody, human IgG1, kappa, N297A, V domains shown, VH WT; VK A50S; HEK293F supernatant) VH: EVQLVQSGAEVKKPGESLKISCKGSGYAFTNYLIEWVRQMPGKGLEWMGVINPGSGGTNYNEKFKGQVTISADKSISTAYLQWSSLKASDTAMYYCARWRGEGYYAYFDVWGQGTTVTVSS VL: AIRLTQSPSSFSASTGDRVTITCKASQSVDYQGDSYMNWYQQKPGKAPKLLIYSASNLESGVPSRFSGSGSGTDFTLTISSLQSEDFATYYCQQSNEDPYTFGGGTKVEIKR | 510 pM | 4500 luminescence signal | 4580 luminescence signal | 1310 luminescence signal |
| Antibody No: 18 (antibody, human IgG1, kappa, N297A, V domains shown, VK A50S; HEK293F supernatant) VH: EVQLVQSGAEVKKPGESLKISCKGSGYAFTNYLIEWVRQMPGKGLEWMGVINPGSGGTYYNEKFKGQVTISADKSISTAYLQWSSLKASDTAMYYCARWRGEGYYAYYDVWGQGTTVTVSS VL: AIRLTQSPSSFSASTGDRVTITCKASQSVDYQGDSYMNWYQQKPGKAPKLLIYSASNLESGVPSRFSGSGSGTDFTLTISSLQSEDFATYYCQQSNEDPYTFGGGTKVEIKR | 540 pM | 8060 luminescence signal | 7320 luminescence signal | 3660 luminescence signal |
| Antibody No: 5 (antibody, human IgG1, kappa, N297A, V domains shown, VH WT; VK M33L + A50S; HEK293F supernatant) VH: EVQLVQSGAEVKKPGESLKISCKGSGYAFTNYLIEWVRQMPGKGLEWMGVINPGSGGTNYNEKFKGQVTISADKSISTAYLQWSSLKASDTAMYYCARWRGEGYYAYFDVWGQGTTVTVSS VL: AIRLTQSPSSFSASTGDRVTITCKASQSVDYQGDSYLNWYQQKPGKAPKLLIYSASNLESGVPSRFSGSGSGTDFTLTISSLQSEDFATYYCQQSNEDPYTFGGGTKVEIKR | 500 pM | 4970 luminescence signal | 4490 luminescence signal | 873 luminescence signal |
| Antibody No: 4 (antibody, human IgG1, kappa, N297A, V domains shown, VH WT; VK A50T; HEK293F supernatant) VH: EVQLVQSGAEVKKPGESLKISCKGSGYAFTNYLIEWVRQMPGKGLEWMGVINPGSGGTNYNEKFKGQVTISADKSISTAYLQWSSLKASDTAMYYCARWRGEGYYAYFDVWGQGTTVTVSS VL: AIRLTQSPSSFSASTGDRVTITCKASQSVDYQGDSYMNWYQQKPGKAPKLLIYTASNLESGVPSRFSGSGSGTDFTLTISSLQSEDFATYYCQQSNEDPYTFGGGTKVEIKR | 730 pM | 2180 luminescence signal | 1990 luminescence signal | 705 luminescence signal |
| Antibody No: 19 (antibody, human IgG1, kappa, N297A, V domains shown, VK A50T; HEK293F supernatant) VH: EVQLVQSGAEVKKPGESLKISCKGSGYAFTNYLIEWVRQMPGKGLEWMGVINPGSGGTYYNEKFKGQVTISADKSISTAYLQWSSLKASDTAMYYCARWRGEGYYAYYDVWGQGTTVTVSS VL: AIRLTQSPSSFSASTGDRVTITCKASQSVDYQGDSYMNWYQQKPGKAPKLLIYTASNLESGVPSRFSGSGSGTDFTLTISSLQSEDFATYYCQQSNEDPYTFGGGTKVEIKR | 500 pM | 5400 luminescence signal | 4880 luminescence signal | 2210 luminescence signal |
| Antibody No: 22 (antibody, human IgG1, kappa, N297A, V domains shown, VK M33L; HEK293F supernatant) VH: EVQLVQSGAEVKKPGESLKISCKGSGYAFSNYLIEWVRQMPGKGLEWMGVINPGSGGTNYNEKFKGQVTISADKSISTAYLQWSSLKASDTAMYYCARWRGEGYYAYYDVWGQGTTVTVSS VL: AIRLTQSPSSFSASTGDRVTITCKASQSVDYQGDSYLNWYQQKPGKAPKLLIYAASNLESGVPSRFSGSGSGTDFTLTISSLQSEDFATYYCQQSNEDPYTFGGGTKVEIKR | 430 pM | 3970 luminescence signal | 3190 luminescence signal | 1200 luminescence signal |

The next binders have a lower EC50 (Proleukin® (aldesleukin) [1]) than those just listed; values first:

| EC50 (Proleukin® (aldesleukin) [1]) | ELISA value (Normal ELISA) (Proleukin® (aldesleukin) [2]) | ELISA value (wash 3x every hour for 4 HRS) (Proleukin® (aldesleukin) [2]) | ELISA value (wash 3x every hour for 12 HRS) (Proleukin® (aldesleukin) [2]) | Binder |
| --- | --- | --- | --- | --- |
| 350 pM | 6050 luminescence signal | 4430 luminescence signal | 1630 luminescence signal | Antibody No: 10 (antibody, human IgG1, kappa, N297A, V domains shown, VK M33L + A50S; HEK293F supernatant) VH: EVQLVQSGAEVKKPGESLKISCKGSGYAFTNYLIEWVRQMPGKGLEWMGVINPGSGGTNYNEKFKGQVTISADKSISTAYLQWSSLKASDTAMYYCARWRGEGYYAYYDVWGQGTTVTVSS VL: AIRLTQSPSSFSASTGDRVTITCKASQSVDYQGDSYLNWYQQKPGKAPKLLIYSASNLESGVPSRFSGSGSGTDFTLTISSLQSEDFATYYCQQSNEDPYTFGGGTKVEIKR |
| 360 pM | 7180 luminescence signal | 7200 luminescence signal | 2540 luminescence signal | Antibody No: 14 (antibody, human IgG1, kappa, N297A, V domains shown, VH N58Y; VK A50T; HEK293F supernatant) VH: EVQLVQSGAEVKKPGESLKISCKGSGYAFTNYLIEWVRQMPGKGLEWMGVINPGSGGTYYNEKFKGQVTISADKSISTAYLQWSSLKASDTAMYYCARWRGEGYYAYFDVWGQGTTVTVSS VL: AIRLTQSPSSFSASTGDRVTITCKASQSVDYQGDSYMNWYQQKPGKAPKLLIYTASNLESGVPSRFSGSGSGTDFTLTISSLQSEDFATYYCQQSNEDPYTFGGGTKVEIKR |
| 340 pM | 12400 luminescence signal | 10500 luminescence signal | 3500 luminescence signal | Antibody No: 11 (antibody, human IgG1, kappa, N297A, V domains shown, VH N58Y; VK WT; HEK293F supernatant) VH: EVQLVQSGAEVKKPGESLKISCKGSGYAFTNYLIEWVRQMPGKGLEWMGVINPGSGGTYYNEKFKGQVTISADKSISTAYLQWSSLKASDTAMYYCARWRGEGYYAYFDVWGQGTTVTVSS VL: AIRLTQSPSSFSASTGDRVTITCKASQSVDYQGDSYMNWYQQKPGKAPKLLIYAASNLESGVPSRFSGSGSGTDFTLTISSLQSEDFATYYCQQSNEDPYTFGGGTKVEIKR |
| 340 pM | 5850 luminescence signal | 5120 luminescence signal | 1730 luminescence signal | Antibody No: 6 (antibody, human IgG1, kappa, N297A, V domains shown, VK WT; HEK293F supernatant) VH: EVQLVQSGAEVKKPGESLKISCKGSGYAFTNYLIEWVRQMPGKGLEWMGVINPGSGGTNYNEKFKGQVTISADKSISTAYLQWSSLKASDTAMYYCARWRGEGYYAYYDVWGQGTTVTVSS VL: AIRLTQSPSSFSASTGDRVTITCKASQSVDYQGDSYMNWYQQKPGKAPKLLIYAASNLESGVPSRFSGSGSGTDFTLTISSLQSEDFATYYCQQSNEDPYTFGGGTKVEIKR |
| 310 pM | 7640 luminescence signal | 6360 luminescence signal | 1550 luminescence signal | Antibody No: 7 (antibody, human IgG1, kappa, N297A, V domains shown, VK M33L; HEK293F supernatant) VH: EVQLVQSGAEVKKPGESLKISCKGSGYAFTNYLIEWVRQMPGKGLEWMGVINPGSGGTNYNEKFKGQVTISADKSISTAYLQWSSLKASDTAMYYCARWRGEGYYAYYDVWGQGTTVTVSS VL: AIRLTQSPSSFSASTGDRVTITCKASQSVDYQGDSYLNWYQQKPGKAPKLLIYAASNLESGVPSRFSGSGSGTDFTLTISSLQSEDFATYYCQQSNEDPYTFGGGTKVEIKR |
| 260 pM | 6170 luminescence signal | 4640 luminescence signal | 1250 luminescence signal | Antibody No: 23 (antibody, human IgG1, kappa, N297A, V domains shown, VK A50S; HEK293F supernatant) VH: EVQLVQSGAEVKKPGESLKISCKGSGYAFSNYLIEWVRQMPGKGLEWMGVINPGSGGTNYNEKFKGQVTISADKSISTAYLQWSSLKASDTAMYYCARWRGEGYYAYYDVWGQGTTVTVSS VL: AIRLTQSPSSFSASTGDRVTITCKASQSVDYQGDSYMNWYQQKPGKAPKLLIYSASNLESGVPSRFSGSGSGTDFTLTISSLQSEDFATYYCQQSNEDPYTFGGGTKVEIKR |
| 380 pM | 10200 luminescence signal | 9810 luminescence signal | 2280 luminescence signal | Antibody No: 16 (antibody, human IgG1, kappa, N297A, V domains shown, VK WT; HEK293F supernatant) VH: EVQLVQSGAEVKKPGESLKISCKGSGYAFTNYLIEWVRQMPGKGLEWMGVINPGSGGTYYNEKFKGQVTISADKSISTAYLQWSSLKASDTAMYYCARWRGEGYYAYYDVWGQGTTVTVSS VL: AIRLTQSPSSFSASTGDRVTITCKASQSVDYQGDSYMNWYQQKPGKAPKLLIYAASNLESGVPSRFSGSGSGTDFTLTISSLQSEDFATYYCQQSNEDPYTFGGGTKVEIKR |
